# Source: article PMC10786891, “Massively parallel profiling of RNA-targeting CRISPR-Cas13d”
# Positions count from the first letter of the chain named.
# T1: EsCas13d, nuclease-dead (Eubacterium siraeum, UniProt B0MS50, R295A;H300A;R849A;H854A)
# T1 sequence: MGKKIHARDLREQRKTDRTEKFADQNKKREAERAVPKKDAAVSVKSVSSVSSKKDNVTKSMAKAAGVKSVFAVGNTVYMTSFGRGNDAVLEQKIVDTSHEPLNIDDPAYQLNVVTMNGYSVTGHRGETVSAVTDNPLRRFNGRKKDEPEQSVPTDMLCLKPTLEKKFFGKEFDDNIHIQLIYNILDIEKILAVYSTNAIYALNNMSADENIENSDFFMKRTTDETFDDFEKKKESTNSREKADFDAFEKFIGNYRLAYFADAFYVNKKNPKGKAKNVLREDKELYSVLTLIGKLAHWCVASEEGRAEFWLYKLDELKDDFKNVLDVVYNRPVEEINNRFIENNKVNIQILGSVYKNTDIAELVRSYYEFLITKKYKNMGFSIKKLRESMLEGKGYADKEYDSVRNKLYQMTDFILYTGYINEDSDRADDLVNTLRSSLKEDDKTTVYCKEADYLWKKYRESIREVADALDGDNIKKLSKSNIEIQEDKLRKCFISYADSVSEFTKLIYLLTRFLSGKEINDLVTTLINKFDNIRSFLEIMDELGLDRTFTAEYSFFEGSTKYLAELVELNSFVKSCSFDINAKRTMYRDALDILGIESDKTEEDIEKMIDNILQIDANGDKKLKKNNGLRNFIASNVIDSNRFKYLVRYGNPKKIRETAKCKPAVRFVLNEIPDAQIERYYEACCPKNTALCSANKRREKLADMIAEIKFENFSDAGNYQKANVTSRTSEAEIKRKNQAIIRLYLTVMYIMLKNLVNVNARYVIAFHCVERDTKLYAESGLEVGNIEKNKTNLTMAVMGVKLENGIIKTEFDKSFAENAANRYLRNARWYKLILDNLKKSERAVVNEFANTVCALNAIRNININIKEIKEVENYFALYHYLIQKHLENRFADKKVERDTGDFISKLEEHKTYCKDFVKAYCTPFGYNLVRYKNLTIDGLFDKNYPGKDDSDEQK
# B1: target 1 MT 5'PFS UAC 3'PFS CCG (mixed)
# RNA 1: CACCCGUGCAAAAAUGCAGGGGUCUAAAACUGAGCGGAUAACCUCUCUAUGG
# RNA 2: GGGAAUGGAUCCACAUCUACGAAUUCUACCCAUAGAGAGGUUAUCCGCUCACCGAGAUCGGAAGAGCACACGU
# B2: target 1 MT 5'PFS GUG 3'PFS CUG (mixed)
# RNA 1: B1 RNA 1
# RNA 2: B1 RNA 2 with U27G, A28U, C29G, C53U
# B3: target 1 MT 5'PFS GGA 3'PFS UGA (mixed)
# RNA 1: B1 RNA 1
# RNA 2: B1 RNA 2 with U27G, A28G, C29A, C52U, C53G, G54A
# B4: target 1 MT 5'PFS GCG 3'PFS ACC (mixed)
# RNA 1: B1 RNA 1
# RNA 2: B1 RNA 2 with U27G, A28C, C29G, C52A, G54C
# B5: target 1 MT 5'PFS GCG 3'PFS CUC (mixed)
# RNA 1: B1 RNA 1
# RNA 2: B1 RNA 2 with U27G, A28C, C29G, C53U, G54C
# B6: target 1 MT 5'PFS UUA 3'PFS UUC (mixed)
# RNA 1: B1 RNA 1
# RNA 2: B1 RNA 2 with A28U, C29A, C52U, C53U, G54C
# B7: target 1 MT 5'PFS GGA 3'PFS UGC (mixed)
# RNA 1: B1 RNA 1
# RNA 2: B1 RNA 2 with U27G, A28G, C29A, C52U, C53G, G54C
# B8: target 1 MT 5'PFS UCG 3'PFS ACC (mixed)
# RNA 1: B1 RNA 1
# RNA 2: B1 RNA 2 with A28C, C29G, C52A, G54C
# B9: target 1 MT 5'PFS GCG 3'PFS CUG (mixed)
# RNA 1: B1 RNA 1
# RNA 2: B1 RNA 2 with U27G, A28C, C29G, C53U
# B10: target 1 MT 5'PFS GGA 3'PFS AGG (mixed)
# RNA 1: B1 RNA 1
# RNA 2: B1 RNA 2 with U27G, A28G, C29A, C52A, C53G
# B11: target 1 del5,del13 (mixed)
# RNA 1: B1 RNA 1
# RNA 2: GGGAAUGGAUCCACAUCUACGAAUUCGUACCAUAGAGAGUUAUCCCUCACCGAGAUCGGAAGAGCACACGU
# B12: target 1 MT 5'PFS GAG 3'PFS ACA (mixed)
# RNA 1: B1 RNA 1
# RNA 2: B1 RNA 2 with U27G, C29G, C52A, G54A
# B13: target 1 insC 3' of 12,insC 3' of 8 (mixed)
# RNA 1: B1 RNA 1
# RNA 2: GGGAAUGGAUCCACAUCUACGAAUUCGUACCAUAGAGAGGCUUAUCCCGCUCACCGAGAUCGGAAGAGCACACGU
# B14: target 1 MT 5'PFS GCG 3'PFS CUU (mixed)
# RNA 1: B1 RNA 1
# RNA 2: B1 RNA 2 with U27G, A28C, C29G, C53U, G54U
# B15: target 1 MT 5'PFS GGA 3'PFS UGU (mixed)
# RNA 1: B1 RNA 1
# RNA 2: B1 RNA 2 with U27G, A28G, C29A, C52U, C53G, G54U
# B16: target 1 MT 5'PFS UUG 3'PFS UUG (mixed)
# RNA 1: B1 RNA 1
# RNA 2: B1 RNA 2 with A28U, C29G, C52U, C53U
# B17: target 1 MT 5'PFS UUA 3'PFS UUG (mixed)
# RNA 1: B1 RNA 1
# RNA 2: B1 RNA 2 with A28U, C29A, C52U, C53U
# B18: target 1 MT 5'PFS UUA 3'PFS UUA (mixed)
# RNA 1: B1 RNA 1
# RNA 2: B1 RNA 2 with A28U, C29A, C52U, C53U, G54A
# B19: target 1 MT 5'PFS GAC 3'PFS CCG (mixed)
# RNA 1: B1 RNA 1
# RNA 2: B1 RNA 2 with U27G
# B20: target 1 MT 5'PFS GGC 3'PFS GCU (mixed)
# RNA 1: B1 RNA 1
# RNA 2: B1 RNA 2 with U27G, A28G, C52G, G54U
# B21: target 1 MT 5'PFS CAU 3'PFS ACU (mixed)
# RNA 1: B1 RNA 1
# RNA 2: B1 RNA 2 with U27C, C29U, C52A, G54U
# B22: target 1 MT 5'PFS AAA 3'PFS UCG (mixed)
# RNA 1: B1 RNA 1
# RNA 2: B1 RNA 2 with U27A, C29A, C52U
# B23: target 1 insU 3' of 2,insC 3' of 1 (mixed)
# RNA 1: B1 RNA 1
# RNA 2: B13 RNA 2 with C41U, U43A, A44U, U45C, C47G, G49U, C52A, A53C
# B24: target 1 MT 5'PFS UAU 3'PFS UUA (mixed)
# RNA 1: B1 RNA 1
# RNA 2: B1 RNA 2 with C29U, C52U, C53U, G54A
# B25: target 1 MT 5'PFS AAU 3'PFS UGA (mixed)
# RNA 1: B1 RNA 1
# RNA 2: B1 RNA 2 with U27A, C29U, C52U, C53G, G54A
# B26: target 1 MT 5'PFS UCC 3'PFS UAU (mixed)
# RNA 1: B1 RNA 1
# RNA 2: B1 RNA 2 with A28C, C52U, C53A, G54U
# B27: target 1 MT 5'PFS UGC 3'PFS UAU (mixed)
# RNA 1: B1 RNA 1
# RNA 2: B1 RNA 2 with A28G, C52U, C53A, G54U
# B28: target 1 MT 5'PFS GAG 3'PFS ACU (mixed)
# RNA 1: B1 RNA 1
# RNA 2: B1 RNA 2 with U27G, C29G, C52A, G54U
# B29: target 1 MT 5'PFS GGU 3'PFS UCU (mixed)
# RNA 1: B1 RNA 1
# RNA 2: B1 RNA 2 with U27G, A28G, C29U, C52U, G54U
# B30: target 1 MT 5'PFS UCC 3'PFS UAG (mixed)
# RNA 1: B1 RNA 1
# RNA 2: B1 RNA 2 with A28C, C52U, C53A
# B31: target 1 MT 5'PFS GCG 3'PFS CUA (mixed)
# RNA 1: B1 RNA 1
# RNA 2: B1 RNA 2 with U27G, A28C, C29G, C53U, G54A
# B32: target 1 MT 5'PFS CAA 3'PFS UGA (mixed)
# RNA 1: B1 RNA 1
# RNA 2: B1 RNA 2 with U27C, C29A, C52U, C53G, G54A
# B33: target 1 MT 5'PFS UCG 3'PFS ACA (mixed)
# RNA 1: B1 RNA 1
# RNA 2: B1 RNA 2 with A28C, C29G, C52A, G54A
# B34: target 1 insA 3' of 13,insU 3' of 7 (mixed)
# RNA 1: B1 RNA 1
# RNA 2: B13 RNA 2 with G40A, C41G, C47U
# B35: target 1 MT 5'PFS AAA 3'PFS UCU (mixed)
# RNA 1: B1 RNA 1
# RNA 2: B1 RNA 2 with U27A, C29A, C52U, G54U
# B36: target 1 MT 5'PFS CCA 3'PFS UAA (mixed)
# RNA 1: B1 RNA 1
# RNA 2: B1 RNA 2 with U27C, A28C, C29A, C52U, C53A, G54A
# B37: target 1 MT 5'PFS GAG 3'PFS ACG (mixed)
# RNA 1: B1 RNA 1
# RNA 2: B1 RNA 2 with U27G, C29G, C52A
# B38: target 1 MT 5'PFS UAU 3'PFS UUU (mixed)
# RNA 1: B1 RNA 1
# RNA 2: B1 RNA 2 with C29U, C52U, C53U, G54U
# B39: target 1 MT 5'PFS UAU 3'PFS UUC (mixed)
# RNA 1: B1 RNA 1
# RNA 2: B1 RNA 2 with C29U, C52U, C53U, G54C
# Biological target: T1, EsCas13d, nuclease-dead
# Experiment: crRNA (strand 1, pre-loaded); Mg2+; 40 mM Tris-HCl pH 7.5, 150 mM NaCl, 6 mM MgCl2, 1 mM DTT, 0.1% Tween-20, 0.2 mg/ml BSA; 25 C; 10 min per concentration, then washed
# Conditions: tags: His6-TwinStrep-SUMO cleaved; N-terminal SNAP kept (SNAP-Surface 488); label: 3' end held by stalled T7 RNA polymerase
row,Binder,Kd
1,B1,14.5 ± 6 nM
2,B2,10.3 ± 0.6 nM
3,B3,16.2 ± 3.15 nM
4,B4,20 ± 8.5 nM
5,B5,~43 nM
6,B6,17.5 ± 3.9 nM
7,B7,8.3 ± 1.1 nM
8,B8,32.5 ± 14 nM
9,B9,10.7 ± 1.8 nM
10,B10,31 ± 4.5 nM
11,B11,11.5 ± 0.9 nM
12,B12,~43 nM
13,B13,32.1 ± 2.8 nM
14,B14,15.6 ± 3.75 nM
15,B15,48 ± 13 nM
16,B16,18.2 ± 3.2 nM
17,B17,11.8 ± 1.2 nM
18,B18,30.5 ± 5 nM
19,B19,13.8 ± 3 nM
20,B20,7.25 ± 1.75 nM

row,Binder,Kd
1,B21,61.5 ± 26 nM
2,B22,15.2 ± 3.7 nM
3,B23,11.1 ± 0.5 nM
4,B24,18.1 ± 3.15 nM
5,B25,61 ± 17 nM
6,B26,~12.6 nM
7,B27,13.8 ± 5 nM
8,B28,24.9 ± 4.75 nM
9,B29,34 ± 8.5 nM
10,B30,49 ± 22.5 nM
11,B31,15.7 ± 3.15 nM
12,B32,~41 nM
13,B33,36 ± 8 nM
14,B34,11.2 ± 0.8 nM
15,B35,25 ± 5.5 nM
16,B36,3.85 ± 1.9 nM
17,B37,32 ± 8.5 nM
18,B38,31 ± 7.5 nM
19,B39,22.5 ± 6 nM
